From patent US20160145332A1 (MONASH UNIVERSITY, published 2016)

Experiments:
[1] = target: T1, human IL-21 (human, UniProt Q9HBE4 25-162, limits assumed); assay: cell-based or functional assay
[2] = target: mIL21 (Mus musculus, UniProt Q9ES17); assay: ELISA: mouse IL-21 coated on the plate, biotinylated 2P2 alone or spiked with Peptide 3, Streptavidin-HRP, TMB, A450
[3] = target: T2, Peptide 3 of hIL-21 (P3, 30aa) (human); assay: ELISA: Peptide 3 coated on the plate, biotinylated 2P2 alone or spiked with Peptide 3, Streptavidin-HRP, TMB, A450
T2 peptide: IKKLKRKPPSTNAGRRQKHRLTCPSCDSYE

[4] = target: T1, human IL-21; assay: SPR (Bio-Rad XPR36), average of the five wells of Table 6; mean of the five single KDs, SD 0.74x10^-9
Protocol: (§1) Surface Plasma Resonance binding kinetics assay were performed on a Bio-rad XPR36 system by the direct amine coupling method. Briefly, a flow of mixture of EDC [N-ethyl-N′-(3-[…]-propyl)carbodiimide] and NHS (N-hydroxysuccinimide) was used to activate the cell surface of a GLC sensor chip before 25 μg/ml anti-IL-21 mAb was flowed through, then a shot flow of ethanolamine was used to block the remaining active sites on the cell surface. Afterwards, serial diluted solutions of IL-21 from 0 to 40 nM were flown over the cell surface to bind to the immobilized anti-IL-21 mAb molecules. Binding kinetics were performed at 25° C. with a flow rate of 30 μL/min, association time of 3 min and dissociation time of 6 min. The buffer consisted of Hepes, NaCl, tween20, and 1 mg/mL BSA at pH 7.4. The flow cell regeneration buffer between cycles was 15 mM phosphoric acid. Double references were used to process the sensorgrams. The binding curves were globally fit to the 1:1 Langmuir binding model.

[5] = target: T3, P2; assay: peptide ELISA: peptide coated on the plate, biotinylated antibody, Streptavidin-HRP, TMB, A450
T3 construct: also called Peptide 2 (P2, 27aa); peptide 2 of hIL-21
T3 peptide: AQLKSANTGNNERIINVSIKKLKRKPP

[6] = target: T4, P1; assay: as above
T4 construct: also called Peptide 1 (P1, 30aa); peptide 1 of hIL-21

[7] = target: T1, human IL-21; assay: SPR (Bio-Rad XPR36), stated average of n=5 measurements; stated final affinity, average of n=5 (table 6)
Protocol: as §1

[8] = target: T5, Peptide 5 of hIL-21 (P5, 15aa) (human); assay: ELISA, biotinylated antibody on coated peptide
T5 peptide: PPSTNAGRRQKHRLT
Protocol: (§2) To detect epitopes of 2P2 and 3A3, peptides consisting of different regions of hIL-21 were synthesized commercially and coated on an ELISA plate, followed by blocking of non-specific binding sites with 3% BSA in PBS. Biotinylated 2P2 or 3A3 were then added to the wells and developed with Streptavidin-HRP and TMB substrates.
(§3) An ELISA assay was used to examine binding between antibodies 2P2 and 3A3 and a Streptavidin-HRP secondary only control to each of the peptides P1 to P5, hIL-21 and OVA peptide. […] Thus, the epitope recognized by antibody 2P2 comprised a minimal sequence of 9 mer to 15 mer, with the core sequence being […] (SEQ ID NO 23). Binding was stronger with the sequence CPSCD was also present and strongest binding was observed when the sequences IKKLK, CPSCD and […] were present.

[9] = target: T6, Peptide 4 of hIL-21 (P4, 23aa) (human); assay: ELISA, biotinylated antibody on coated peptide
T6 peptide: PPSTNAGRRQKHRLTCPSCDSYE
Protocol: as §2, §3

T1 sequence (Q9HBE4 25-162 limits assumed): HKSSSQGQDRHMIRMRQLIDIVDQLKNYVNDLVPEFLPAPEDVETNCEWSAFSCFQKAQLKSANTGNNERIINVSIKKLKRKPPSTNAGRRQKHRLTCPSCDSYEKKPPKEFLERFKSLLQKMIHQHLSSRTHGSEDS
T4 sequence (peptide, as listed by the source): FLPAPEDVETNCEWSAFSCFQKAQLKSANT

- bioactivity of human IL-21 on Ba/F3-hIL-21R cell proliferation at 10 µg/ml 2P2 [1]: > 10 fold
- hIL-21 bioactivity on human CD8 T cell activation (granzyme B and perforin) [1]: > 10 fold
- hIL-21 mediated human B cell proliferation (CFSE dilution); 5 ng/ml hIL-21 plus 1 µg/ml 2P2 compared with 100 ng/ml hIL-21 [1]: ~20 fold
- binding result [2]: no binding
- binding result [3]: binds
- Kd [4]: 3.33 nM
- binding result [5]: no binding
- binding result [6]: no binding
- Kd [7]: 3 nM
- binding result [8]: binds
- binding result [9]: binds
B1: monoclonal antibody 2P2 (antibody, V domains shown)
VH: EVQLQQSGADLVRSGASVKLSCTASGFNIKDYYIHWVKQRPEQGLELIGWIDPESGDTEYAPKFQVKATMTADTSSNTAYLQLSSLTSEDTAVYYCNDGSGYWGQGTTLTVSS
VL: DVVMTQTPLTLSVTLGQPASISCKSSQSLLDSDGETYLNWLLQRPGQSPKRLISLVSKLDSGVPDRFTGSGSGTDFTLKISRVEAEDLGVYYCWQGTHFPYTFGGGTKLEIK
notes: It was biotinylated in the ELISA assays and unlabelled, amine-coupled to the chip, in SPR; also called mAb 2P2; mAB 2P2
